The source of these data is paper doi:10.1101/2024.09.04.610023 (bioRxiv, 2024).

The assay concerns the target T1, Purified human GST-PABPN1 (human, UniProt Q86U42-1 1-306).
T1 sequence (looked up): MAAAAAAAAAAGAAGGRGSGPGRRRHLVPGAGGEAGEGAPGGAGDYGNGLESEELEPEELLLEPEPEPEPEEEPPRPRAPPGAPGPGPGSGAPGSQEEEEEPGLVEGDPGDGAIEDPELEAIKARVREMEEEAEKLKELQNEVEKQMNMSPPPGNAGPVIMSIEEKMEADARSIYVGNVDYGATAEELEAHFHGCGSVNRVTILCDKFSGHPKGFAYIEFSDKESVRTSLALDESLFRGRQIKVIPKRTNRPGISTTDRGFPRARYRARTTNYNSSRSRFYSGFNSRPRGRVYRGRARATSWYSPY
Briefly: peptide or protein array.

Turning to TQIFEDPREFLSHL (peptide, UniProt Q63053 211-224, looked up) [Arc array peptide 211-224], the binding result is recorded as “binds”.

With QPKFKRFLRHPLPK (peptide, UniProt Q63053 330-343, looked up) [Arc array peptide 330-343], the binding result is “binds”.

For the molecule LWRKRDLYQTLYVD (peptide, UniProt Q63053 302-315, looked up) [Arc array peptide 302-315], the binding result is recorded as “binds”.
